{"source": "paper PMC4894380", "target": "T1, MqsA (Escherichia coli (strain of the protein not stated)) (UniProt Q46864)", "T1 sequence": "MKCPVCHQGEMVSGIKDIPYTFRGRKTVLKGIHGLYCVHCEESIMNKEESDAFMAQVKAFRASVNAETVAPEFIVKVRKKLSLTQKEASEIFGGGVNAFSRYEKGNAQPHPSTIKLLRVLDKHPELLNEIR", "assay": "EMSA", "conditions": "10 mM Tris-HCl pH 7.5, 50 mM KCl, 1 mM DTT, 1 ug poly(dI.dC), 30-50 fmol labeled probe, ambient temperature, 1 h; 6% gel, 0.5x TBE"}
{"sequence": "CGTGTATGTGGTGTGCGTTTTTCCATAACCCCCGCCTCCCTGTTACTTTAGTTATAACCTAAAAGGTTAATTACAGCAATGAAAAAGCACCTAAAAGGTTAGTTAGATGTACGGAGATAGTGACCACACAAAACGTATTCTTTAAGGAAAGTGATTGACCATATAAGAAAGTGGCGCATTAGTAGCGCCAGTTTGAAGCAGGAATTTATAAGGGAAGCTGGAGTCAGGCATCAC (double strand) [p-mqsRA (234 bp)]", "values": [{"measurement": "binding", "result": "binds"}]}
